Test results as given in patent US20120282619.

Columns and labels:
p190RhoGAP, Q9NRY4 = biological target: T1, p190RhoGAP, Q9NRY4
T1 chain: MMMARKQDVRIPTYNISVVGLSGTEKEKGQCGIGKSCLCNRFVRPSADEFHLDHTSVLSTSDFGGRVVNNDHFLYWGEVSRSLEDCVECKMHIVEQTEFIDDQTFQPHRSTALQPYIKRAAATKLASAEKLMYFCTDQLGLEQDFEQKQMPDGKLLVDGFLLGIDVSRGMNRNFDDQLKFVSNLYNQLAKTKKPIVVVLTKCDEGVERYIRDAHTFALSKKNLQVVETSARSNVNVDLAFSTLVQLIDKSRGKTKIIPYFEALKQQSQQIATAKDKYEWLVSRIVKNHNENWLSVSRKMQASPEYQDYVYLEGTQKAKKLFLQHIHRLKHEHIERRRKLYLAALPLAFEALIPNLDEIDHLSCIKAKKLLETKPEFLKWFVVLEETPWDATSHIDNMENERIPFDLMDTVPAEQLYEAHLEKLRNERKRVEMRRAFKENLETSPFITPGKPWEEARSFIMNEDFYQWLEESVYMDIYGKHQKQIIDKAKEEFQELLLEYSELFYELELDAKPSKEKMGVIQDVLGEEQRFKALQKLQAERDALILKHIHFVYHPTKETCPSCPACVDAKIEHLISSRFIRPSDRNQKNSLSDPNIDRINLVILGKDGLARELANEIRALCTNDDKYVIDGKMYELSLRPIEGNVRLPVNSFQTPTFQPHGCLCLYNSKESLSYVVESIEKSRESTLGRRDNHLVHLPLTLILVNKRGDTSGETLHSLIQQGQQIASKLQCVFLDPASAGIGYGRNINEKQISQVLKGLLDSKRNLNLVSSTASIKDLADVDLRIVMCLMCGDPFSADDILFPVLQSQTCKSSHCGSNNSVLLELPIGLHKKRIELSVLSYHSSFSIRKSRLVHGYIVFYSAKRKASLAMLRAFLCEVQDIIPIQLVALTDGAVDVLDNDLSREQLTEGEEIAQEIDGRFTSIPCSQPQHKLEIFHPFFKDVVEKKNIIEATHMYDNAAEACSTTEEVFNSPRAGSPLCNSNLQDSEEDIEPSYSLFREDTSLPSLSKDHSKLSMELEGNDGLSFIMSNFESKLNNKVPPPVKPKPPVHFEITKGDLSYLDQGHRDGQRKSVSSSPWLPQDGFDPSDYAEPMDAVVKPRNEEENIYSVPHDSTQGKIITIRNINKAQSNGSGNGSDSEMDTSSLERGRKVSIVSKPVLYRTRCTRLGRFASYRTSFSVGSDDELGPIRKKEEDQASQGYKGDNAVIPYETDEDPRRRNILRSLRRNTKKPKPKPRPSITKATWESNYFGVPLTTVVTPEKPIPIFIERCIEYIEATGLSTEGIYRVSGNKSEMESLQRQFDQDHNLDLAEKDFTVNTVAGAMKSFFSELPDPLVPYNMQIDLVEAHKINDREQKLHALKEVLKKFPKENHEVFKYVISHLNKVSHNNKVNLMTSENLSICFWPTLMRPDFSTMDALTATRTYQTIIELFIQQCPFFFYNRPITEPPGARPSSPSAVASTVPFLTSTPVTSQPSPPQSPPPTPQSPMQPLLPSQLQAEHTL

[1] = biological target: T2, GTPase regulator associated with FAK (GRAF), Q9UNA1
T2 chain: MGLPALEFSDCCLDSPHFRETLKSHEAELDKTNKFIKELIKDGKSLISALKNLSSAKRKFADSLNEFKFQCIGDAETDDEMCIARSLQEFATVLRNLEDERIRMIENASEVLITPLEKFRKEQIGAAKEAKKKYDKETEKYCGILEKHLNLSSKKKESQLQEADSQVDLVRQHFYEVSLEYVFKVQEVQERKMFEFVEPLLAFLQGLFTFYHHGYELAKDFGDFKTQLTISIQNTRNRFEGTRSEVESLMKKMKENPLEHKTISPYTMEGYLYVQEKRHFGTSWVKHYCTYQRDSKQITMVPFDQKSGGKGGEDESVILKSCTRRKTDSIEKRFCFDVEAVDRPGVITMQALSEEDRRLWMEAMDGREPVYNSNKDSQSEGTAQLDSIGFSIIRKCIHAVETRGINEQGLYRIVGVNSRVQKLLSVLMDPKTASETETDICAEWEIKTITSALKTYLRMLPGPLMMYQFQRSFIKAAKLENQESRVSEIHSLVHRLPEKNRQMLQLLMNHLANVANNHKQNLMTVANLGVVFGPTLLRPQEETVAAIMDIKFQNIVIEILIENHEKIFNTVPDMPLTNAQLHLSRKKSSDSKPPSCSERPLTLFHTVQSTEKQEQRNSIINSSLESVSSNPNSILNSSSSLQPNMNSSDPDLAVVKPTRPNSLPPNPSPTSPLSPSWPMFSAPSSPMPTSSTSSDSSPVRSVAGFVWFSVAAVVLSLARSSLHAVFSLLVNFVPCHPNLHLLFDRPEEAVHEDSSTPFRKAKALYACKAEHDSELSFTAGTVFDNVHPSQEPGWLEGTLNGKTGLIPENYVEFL

B1: focal adhesion kinase (FAK) (protein)
chain: AAAYLDPNLNHTPNSSTKTHLGTGMERSPGAMERVLKVFHYFESNSEPTTWASIIRHGDATDVRGIIQKIVDSHKVKHVACYGFRLSHLRSEEVHWLHVDMGVSSVREKYELAHPPEEWKYELRIRYLPKGFLNQFTEDKPTLNFFYQQVKSDYMLEIADQVDQEIALKLGCLEIRRSYWEMRGNALEKKSNYEVLEKDVGLKRFFPKSLLDSVKAKTLRKLIQQTFRQFANLNREESILKFFEILSPVYRFDKECFKCALGSSWIISVELAIGPEEGISYLTDKGCNPTHLADFTQVQTIQYSNSEDKDRKGMLQLKIAGAPEPLTVTAPSLTIAENMADLIDGYCRLVNGTSQSFIIRPQKEGERALPSIPKLANSEKQGMRTHAVSVSETDDYAEIIDEEDTYTMPSTRDYEIQRERIELGRCIGEGQFGDVHQGIYMSPENPALAVAIKTCKNCTSDSVREKFLQEALTMRQFDHPHIVKLIGVITENPVWIIMELCTLGELRSFLQVRKYSLDLASLILYAYQLSTALAYLESKRFVHRDIAARNVLVSSNDCVKLGDFGLSRYMEDSTYYKASKGKLPIKWMAPESINFRRFTSASDVWMFGVCMWEILMHGVKPFQGVKNNDVIGRIENGERLPMPPNCPPTLYSLMTKCWAYDPSRRPRFTELKAQLSTILEEEKAQQEERMRMESRRQATVSWDSGGSDEAPPKPSRPGYPSPRSSEGFYPSPQHMVQTNHYQVSGYPGSHGITAMAGSIYPGQASLLDQTDSWNHRPQEIAMWQPNVEDSTVLDLRGIGQVLPTHLMEERLIRQQQEMEEDQRWLEKEERFLKPDVRLSRGSIDREDGSLQGPIGNQHIYQPVGKPDPAAPPKKPPRPGAPGHLGSLASLSSPADSYNEGVKLQPQEISPPPTANLDRSNDKVYENVTGLVKAVIEMSSKIQPAPPEEYVPMVKEVGLALRTLLATVDETIPLLPASTHREIEMAQKLLNSDLGELINKMKLAQQYVMTSLQQEYKKQMLTAAHALAVDAKNLLDVIDQARLKMLGQTRPH
- RhoA activity (p190RhoGAP, Q9NRY4): TM4SF5 expressed in SNU449 cells inhibited RhoA activity, leading to the elongation of cells
- RhoA activity [1]: TM4SF5 expressed in SNU449 cells inhibited RhoA activity, leading to the elongation of cells
